Test [1] addresses G-actin (rabbit muscle) (rabbit) (UniProt P68135).
Test [2] concerns the target F-actin (rabbit muscle) (rabbit) (UniProt P68135). Nature of the test: co-sedimentation.
Test [3] has as its target pyrenyl-labeled F-actin (rabbit muscle) (rabbit) (UniProt P68135). Nature of the test: other fluorescence titration.
The target in test [4] is NBD-labeled G-actin (rabbit muscle) (rabbit) (UniProt P68135). The test is described as follows: other fluorescence titration.

A word on the stoichiometry N: it is the number of molecules, sites or subunits per partner or assembly. By Kd is commonly meant the concentration at which binding is half-saturated. Low readings indicate a tighter complex, high ones a looser complex. On to “Recombinant ADF1 from Arabidopsis thaliana (natural protein)”, for which the association to barbed ends in low ionic strength F buffer (1 mM MgCl2) in test [1] worked out at 20 fold. In addition, the stoichiometry N in test [2], in test [3] and in test [4] was 1 each time. The substance also gave a Ka in test [3] of over 1e+06 M⁻¹. Further, the dissociation constant (Kd) in test [4] amounted to 25 nM.

Values taken from publication PMC2132522.
